Test results reported in PMC8591229.
Bridge positions count the residues as written; N and C are the ends. Ends that are not written are not given here.

Target: T1, human islet amyloid polypeptide (IAPP) (human) (not fully specified)
T1 chain: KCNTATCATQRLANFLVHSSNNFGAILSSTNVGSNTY
Test: seeded thioflavin T fluorescence aggregation kinetics; 5 uM monomeric IAPP with preformed IAPP fibril seeds at 0 to 33% (monomer equivalents), 33 mM acetate, 150 mM KCl, pH 5.3, 37 C, quiescent; elongation (monomer added to fibril ends) from the initial gradient at 33% seeds and the fibril length by cryo-TEM
Conditions: remark: other sources report otherwise

elongation rate constant k+: 500000 M⁻¹ s⁻¹
B1: human islet amyloid polypeptide (IAPP) (peptide)
chain: KCNTATCATQRLANFLVHSSNNFGAILSSTNVGSNTY-NH2
modifications: disulfide 2-7 (inferred); not fully specified
